Experimental data reported in paper PMC5711770, “Acetylome of Acinetobacter baumannii SK17 Reveals a Highly-Conserved Modification of Histone-Like Protein HU” (Frontiers in Molecular Biosciences, 2017).

B1: wild-type HU with a C-terminal His-tag (Acinetobacter baumannii SK17 histone-like DNA-binding protein HU) (natural protein, UniProt A0ABX6CHP0 1-90, looked up)
chain: MNKSELIDAIAEKGGVSKTDAGKALDATIASITEALKKGDTVTLVGFGTFSVKERAARTGRNPKTGEELQIKATKVPSFKAGKGLKDSVA
notes: cloned whole between NdeI and XhoI of pET-21a(+); also called wt HU; wt; source: E. coli BL21(DE3), purified (Ni-NTA, cation-exchange chromatography); not shown: His6, C-terminal, kept
B2: HU(K13ac), HU acetylated at Lys13, with a C-terminal His-tag (natural protein, Acinetobacter baumannii SK17, UniProt A0ABX6CHP0 1-90, looked up)
chain: MNKSELIDAIAEKGGVSKTDAGKALDATIASITEALKKGDTVTLVGFGTFSVKERAARTGRNPKTGEELQIKATKVPSFKAGKGLKDSVA
modifications: acetyllysine at residue 13
notes: the codon of Lys13 replaced by an amber codon for site-specific incorporation of acetyllysine; also called Lys13-acetylated HU; not shown: His6, C-terminal, kept
B3: biotin-labeled dsDNA (BLI) (dsDNA)
DNA 1: ATTAATATTTTCTTAAACTAATTTAAAAT
DNA 2: ATTTTAAATTAGTTTAAGAAAATATTAAT

Columns and labels:
[1] = target: the molecule itself; experiment: SEC; analytical size-exclusion chromatography, Superdex 75 10/300 GL, PBS, 0.5 ml/min; size judged against ovalbumin (44 kDa) and myoglobin (17 kDa) markers
[2] = target: HU (wt*, without His-tag) (Acinetobacter baumannii SK17, UniProt A0ABX6CHP0); experiment: BLI; BLI: 30 mM Tris pH 7.5, 100 mM NaCl, 0.02% Tween20, 0.5 mg/ml BSA, 25°C; EMSA: same buffer, 37°C 1 h, 250 ng DNA in 10 µl, 1% agarose in TAE; AFM: 10 mM HEPES pH 7.5, 4 mM MgCl2; settings: protein: recombinant; tags: none; N-terminal GA remains after TEV cleavage; chain copies: 2; label: 5'-biotin on strand 1; (only one strand printed)
[3] = target: HU (wt, C-terminal His-tag) (Acinetobacter baumannii SK17, UniProt A0ABX6CHP0); experiment: as above; settings: protein: recombinant; chain copies: 2; label: 5'-biotin on strand 1; (only one strand printed)
[4] = target: HU(K13ac) (C-terminal His-tag) (Acinetobacter baumannii SK17, UniProt A0ABX6CHP0, K13ac); experiment: BLI; kon and koff several-fold lower than wt; BLI: 30 mM Tris pH 7.5, 100 mM NaCl, 0.02% Tween20, 0.5 mg/ml BSA, 25°C; EMSA: same buffer, 37°C 1 h, 250 ng DNA in 10 µl, 1% agarose in TAE; AFM: 10 mM HEPES pH 7.5, 4 mM MgCl2; settings: protein: recombinant; chain copies: 2; label: 5'-biotin on strand 1; (only one strand printed)

Binder	stoichiometry N [1]	Kd [2] [nM]	Kd [3] [nM]	Kd [4] [nM]
B1	2	–	–	–
B2	2	–	–	–
B3	–	276 ± 143	349 ± 352	184 ± 9.3
